The values below come from article PMC10143966, “The Replicative DnaE Polymerase of Bacillus subtilis Recruits the Glycolytic Pyruvate Kinase (PykA) When Bound to Primed DNA Templates” (Life, 2023).

The target in data set [1] is T1, B. subtilis DnaE polymerase (B. subtilis, UniProt O34623 1-1115).
T1 construct: DnaE DNA polymerase, Bacillus subtilis; also called replicative DnaE polymerase; lagging strand DNA polymerase
T1 sequence (looked up): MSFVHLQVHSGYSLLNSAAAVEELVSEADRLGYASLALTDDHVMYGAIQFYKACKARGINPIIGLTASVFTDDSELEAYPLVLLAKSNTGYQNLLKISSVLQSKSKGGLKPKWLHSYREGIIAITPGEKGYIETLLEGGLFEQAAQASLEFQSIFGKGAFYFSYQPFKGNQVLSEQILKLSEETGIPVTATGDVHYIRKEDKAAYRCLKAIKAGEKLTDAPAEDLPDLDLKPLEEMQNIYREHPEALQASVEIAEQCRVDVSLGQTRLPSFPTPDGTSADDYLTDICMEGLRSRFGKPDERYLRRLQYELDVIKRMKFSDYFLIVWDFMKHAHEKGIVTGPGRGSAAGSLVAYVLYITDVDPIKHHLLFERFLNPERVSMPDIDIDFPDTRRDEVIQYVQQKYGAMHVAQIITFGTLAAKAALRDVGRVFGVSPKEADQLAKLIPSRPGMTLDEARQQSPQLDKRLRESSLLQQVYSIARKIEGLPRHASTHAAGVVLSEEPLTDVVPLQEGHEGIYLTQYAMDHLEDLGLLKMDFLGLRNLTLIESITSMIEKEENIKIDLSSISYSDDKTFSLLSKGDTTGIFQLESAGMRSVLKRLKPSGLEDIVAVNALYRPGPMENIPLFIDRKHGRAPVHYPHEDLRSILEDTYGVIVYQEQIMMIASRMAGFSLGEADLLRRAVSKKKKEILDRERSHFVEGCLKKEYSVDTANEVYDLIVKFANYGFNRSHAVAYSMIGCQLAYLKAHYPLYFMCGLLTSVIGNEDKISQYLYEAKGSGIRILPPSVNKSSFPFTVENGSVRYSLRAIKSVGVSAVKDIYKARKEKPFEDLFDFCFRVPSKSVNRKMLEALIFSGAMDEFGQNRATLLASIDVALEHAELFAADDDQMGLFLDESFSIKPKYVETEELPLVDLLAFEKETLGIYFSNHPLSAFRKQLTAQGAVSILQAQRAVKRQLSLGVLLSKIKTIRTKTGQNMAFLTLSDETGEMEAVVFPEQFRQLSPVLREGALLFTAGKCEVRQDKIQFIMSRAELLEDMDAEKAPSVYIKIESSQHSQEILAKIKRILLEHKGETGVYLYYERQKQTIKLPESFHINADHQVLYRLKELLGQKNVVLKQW
As to the kind of experiment: SPR; 5'-biotinylated primed DNA probe (30 mer annealed to 110 mer) immobilised on a streptavidin SA chip (about 100 RU); DnaE (35 nM) added with increasing concentrations of PykA (0-1000 nM), CAT or PEPut; Biacore T200, 200 uL/min, 25 °C, 25 mM NaCl, 25 mM MgCl2, 150 mM Tris-HCl pH 7.5, 1 mM DTT; maximum RU values fitted to a one site-specific binding curve. (In general: In SPR one partner is held on a chip, and binding of the other changes the refractive index at the surface.)

The target of data set [2] is DnaE polymerase;PykA CAT domain (Bacillus subtilis;Bacillus subtilis, UniProt O34623;P80885 1-1115;2-473, |). As to the kind of experiment: SPR; CAT titrated onto DnaE (35 nM) on DNA; Kd is for CAT to DnaE-DNA complex; 25 mM MgCl2; SPR (Biacore T200, SA chip): 25 mM NaCl, 25 mM MgCl2, 150 mM Tris-HCl pH 7.5, 1 mM DTT, 25 °C. Particulars: protein: recombinant;recombinant; tags: ;His-MBP removed by TEV; label: 5' biotin on 110 mer (strand 1); 30 mer primer annealed to 110 mer template, ssDNA on both sides; 5' A of the primer may be near/at the CCCCCT junction.

The next data set addresses DnaE polymerase (Bacillus subtilis, UniProt O34623 1-1115). As to the kind of experiment: SPR; 25 mM MgCl2; DnaE 0-700 nM; SPR (Biacore T200, SA chip): 25 mM NaCl, 25 mM MgCl2, 150 mM Tris-HCl pH 7.5, 1 mM DTT, 25 °C. Particulars: protein: recombinant; label: 5' biotin on 110 mer (strand 1); 30 mer primer annealed to 110 mer template, ssDNA on both sides; 5' A of the primer may be near/at the CCCCCT junction.

Another data set deals with T2, PykA CAT domain (Bacillus subtilis, UniProt P80885 2-473).
T2 sequence: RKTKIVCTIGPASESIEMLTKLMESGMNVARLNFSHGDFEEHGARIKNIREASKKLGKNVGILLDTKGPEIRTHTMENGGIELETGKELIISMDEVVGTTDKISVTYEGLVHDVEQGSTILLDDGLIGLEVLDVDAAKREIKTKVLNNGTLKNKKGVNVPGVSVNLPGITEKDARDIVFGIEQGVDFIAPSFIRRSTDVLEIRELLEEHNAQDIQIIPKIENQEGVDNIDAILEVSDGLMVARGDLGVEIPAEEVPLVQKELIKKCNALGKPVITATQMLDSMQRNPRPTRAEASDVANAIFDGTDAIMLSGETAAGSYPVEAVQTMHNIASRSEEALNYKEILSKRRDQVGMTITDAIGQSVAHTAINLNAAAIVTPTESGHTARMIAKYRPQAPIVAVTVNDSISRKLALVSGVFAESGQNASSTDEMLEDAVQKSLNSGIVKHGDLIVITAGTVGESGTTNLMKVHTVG
The data set is described as follows: SPR; no DnaE; 25 mM MgCl2; SPR (Biacore T200, SA chip): 25 mM NaCl, 25 mM MgCl2, 150 mM Tris-HCl pH 7.5, 1 mM DTT, 25 °C. Particulars: protein: recombinant; tags: His-MBP removed by TEV; label: 5' biotin on 110 mer (strand 1); 30 mer primer annealed to 110 mer template, ssDNA on both sides; 5' A of the primer may be near/at the CCCCCT junction.

In another data set the target is T3, PykA pyruvate kinase (Bacillus subtilis, UniProt P80885 1-585).
T3 sequence: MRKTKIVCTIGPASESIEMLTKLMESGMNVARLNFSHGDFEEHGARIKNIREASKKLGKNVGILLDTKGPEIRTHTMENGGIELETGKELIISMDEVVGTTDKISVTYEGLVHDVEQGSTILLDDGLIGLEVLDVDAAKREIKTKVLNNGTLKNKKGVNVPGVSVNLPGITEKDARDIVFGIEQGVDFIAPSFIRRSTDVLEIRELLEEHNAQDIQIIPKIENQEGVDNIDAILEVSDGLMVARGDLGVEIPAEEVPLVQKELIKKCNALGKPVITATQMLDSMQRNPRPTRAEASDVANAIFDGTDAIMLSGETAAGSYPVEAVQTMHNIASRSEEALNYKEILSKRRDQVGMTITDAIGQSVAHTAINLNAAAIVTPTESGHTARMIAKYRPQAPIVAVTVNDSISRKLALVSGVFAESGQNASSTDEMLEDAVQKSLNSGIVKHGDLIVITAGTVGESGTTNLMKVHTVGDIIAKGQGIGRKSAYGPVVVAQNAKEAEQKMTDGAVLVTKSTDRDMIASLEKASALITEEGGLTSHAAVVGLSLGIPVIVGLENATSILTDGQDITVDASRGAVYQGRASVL
Described as above. The settings on record: protein: recombinant; tags: His-MBP removed by TEV; chain copies: 4; label: 5' biotin on 110 mer (strand 1); 30 mer primer annealed to 110 mer template, ssDNA on both sides; 5' A of the primer may be near/at the CCCCCT junction.

The next data set concerns the target T4, PykA PEPut domain (Bacillus subtilis, UniProt P80885 494-585).
T4 sequence: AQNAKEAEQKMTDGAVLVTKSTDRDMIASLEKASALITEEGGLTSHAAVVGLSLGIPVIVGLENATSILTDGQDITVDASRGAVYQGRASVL
The data set is described as above. The settings on record: protein: recombinant; tags: His-MBP removed by TEV; label: 5' biotin on 110 mer (strand 1); 30 mer primer annealed to 110 mer template, ssDNA on both sides; 5' A of the primer may be near/at the CCCCCT junction.

Data set [3] concerns the target DnaE polymerase;PykA pyruvate kinase (Bacillus subtilis;Bacillus subtilis, UniProt O34623;P80885 1-1115;1-585, |). As to the kind of experiment: SPR; PykA titrated (0-1000 nM) onto DnaE (35 nM) on DNA; Kd is for PykA to DnaE-DNA complex; 25 mM MgCl2; SPR (Biacore T200, SA chip): 25 mM NaCl, 25 mM MgCl2, 150 mM Tris-HCl pH 7.5, 1 mM DTT, 25 °C. Particulars: protein: recombinant;recombinant; tags: ;His-MBP removed by TEV; copies: 1;4; label: 5' biotin on 110 mer (strand 1); 30 mer primer annealed to 110 mer template, ssDNA on both sides; 5' A of the primer may be near/at the CCCCCT junction.

Read-outs that look alike come from different tables or passages of the source.

As usually defined, the Kd is the constant that tells how readily two partners part at equilibrium. “CAT domain of B. subtilis PykA (domain or fragment)”: the Kd in data set [1] was determined as 7.33 nM.

B1: B. subtilis pyruvate kinase PykA, full-length, wild type (enzyme, UniProt P80885 1-585, looked up)
chain: T3 sequence
notes: PykA pyruvate kinase, Bacillus subtilis; 1755 bp pykA fragment amplified from genomic DNA, cloned into p2CT; the same vector gives an N-terminal tag for PEPut; Tetramer: legends give 16 nM monomers as 4 nM tetramers; also called full-length PykA; wild-type PykA; source: E. coli Rosetta (DE3), purified (HisTrap IMAC, TEV cleavage, reverse IMAC, Superdex 200 gel filtration)
For the molecule B1, the affinity in data set [1] (both partners purified), expressed as Kd, was 14.6 nM.

B2: primed probe, 30 mer on 5'-biotinylated 110 mer (mixed)
DNA 1: CACACACACACACACACACACACACACACACACACACACACACACACACACACACACACCCCCTTTAAAAAAAAAAAAAAAAGCCAAAAGCAGTGCCAAGCTTGCATGCC
DNA 2: AGGGGGTGTGTGTGTGTGTGTGTGTGTGTG
Turning to B2, the Kd in data set [2] worked out at 7.33 nM; in the data set with DnaE polymerase, 146 nM; in data set [3] it was 14.6 nM. Besides, the binding result with PykA CAT domain, with PykA pyruvate kinase and with PykA PEPut domain was “no binding” each time.
